Source: patent publication US20240402194A1 (QATAR FOUNDATION FOR EDUCATION SCIENCE AND COMMUNITY …, published 2024)

Assays:
γ-synuclein = γ-synuclein (UniProt O76070 1-127); experiment: Western blot
β-synuclein = β-synuclein (UniProt Q16143 1-134); experiment: Western blot
[1] = target: α-synuclein aggregates from mouse (mouse, UniProt O55042 1-140); experiment: filter retardation assay
[2] = target: mouse α-synuclein (WT-α-syn from mouse) (mouse, UniProt O55042 1-140); experiment: method not named in the sentence (Western blot in the same paragraph)

Chain of β-synuclein (Q16143 whole entry): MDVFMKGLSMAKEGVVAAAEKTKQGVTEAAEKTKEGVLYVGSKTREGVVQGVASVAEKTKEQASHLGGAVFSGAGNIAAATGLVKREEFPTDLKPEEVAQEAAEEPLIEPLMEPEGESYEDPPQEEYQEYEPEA
Chain of γ-synuclein (O76070 whole entry): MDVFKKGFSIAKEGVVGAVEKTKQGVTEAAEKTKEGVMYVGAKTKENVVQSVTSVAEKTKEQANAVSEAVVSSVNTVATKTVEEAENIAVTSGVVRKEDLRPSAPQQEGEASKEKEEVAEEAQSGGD

Binder | binding result (γ-synuclein) | binding result (β-synuclein) | binding result [1] | binding result [2]
monoclonal antibody 4B1 produced by the hybridoma 4B1, ATCC Patent Deposit Number PTA-127017 (antibody, mouse IgG1, kappa, V domains shown, also called mAb 4B1) VH: EVKLVESGGGLVQPGGSLKLSCAASGITFSSYTMSWVRQTPEKRLEWVGYISNGGGRTYYPDTVKGRFTISRDNAKNTLYLQMSSLKSEDTAMYYCARQITTAMGYYYAMDYWGQGTSVTVSS VL: DVVMTQTPLSLPVSLGDQASISCRSSQSLVHSNGNTYLHWYLQKPGQSPKLLISKVSNRFSGVPDRFSGSGSGTDFTLKISRVEAEDLGVYFCSQSTHVPLTFGAGTKLELKR | no binding | no binding |  | 
monoclonal antibody 2A1 (antibody, mouse IgG1, kappa, V domains shown, also called mAb 2A1) VH: QVQLQQPGAELVKPGASVKMSCKASGYTFSSYNLHWVKQTPGQGLEWIGAIYPGNGDTSYNQKFKGKATLTADKSSSTAYMQLSSLTSEDSAVYYCTRRDYYGSRGFAYWGQGTLVTVSA VL: DIQMNQSPSSLSASLGDTITITCHASQNINVWLSWYQQKPGNIPKLLIYKASNLHTGVPSRFSGSRSGTGFTLTISSLQPEDIATYYCQQGQSFPWTFGGGTKLEIKR |  |  | binds | binds
